Assay results reported in IntAct's records for PubMed 29541021.

Legend:
1433f_human YWHAH = 1433f_human YWHAH (UniProt Q04917)
dnm1l_human DNM1L = dnm1l_human DNM1L (UniProt O00429)
Sequence of dnm1l_human DNM1L (O00429 whole entry): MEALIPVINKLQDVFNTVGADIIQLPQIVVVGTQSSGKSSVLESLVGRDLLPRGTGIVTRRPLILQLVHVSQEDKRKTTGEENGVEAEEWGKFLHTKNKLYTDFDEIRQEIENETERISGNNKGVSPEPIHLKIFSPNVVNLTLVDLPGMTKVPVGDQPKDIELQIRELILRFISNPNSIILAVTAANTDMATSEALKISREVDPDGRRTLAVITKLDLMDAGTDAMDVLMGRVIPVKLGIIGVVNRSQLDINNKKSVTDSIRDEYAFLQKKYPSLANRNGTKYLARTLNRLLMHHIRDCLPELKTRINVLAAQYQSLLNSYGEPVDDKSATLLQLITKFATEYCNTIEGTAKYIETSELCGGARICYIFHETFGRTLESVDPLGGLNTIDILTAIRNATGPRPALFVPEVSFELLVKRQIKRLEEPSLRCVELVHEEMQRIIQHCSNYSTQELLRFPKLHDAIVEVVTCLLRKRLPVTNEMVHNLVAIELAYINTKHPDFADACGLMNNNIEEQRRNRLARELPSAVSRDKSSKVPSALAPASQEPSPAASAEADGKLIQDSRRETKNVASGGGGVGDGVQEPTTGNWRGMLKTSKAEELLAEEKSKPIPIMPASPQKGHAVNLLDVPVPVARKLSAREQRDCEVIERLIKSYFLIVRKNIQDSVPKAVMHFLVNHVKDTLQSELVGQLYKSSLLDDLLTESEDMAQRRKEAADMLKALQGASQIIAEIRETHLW

Sequence of 1433f_human YWHAH (Q04917 whole entry): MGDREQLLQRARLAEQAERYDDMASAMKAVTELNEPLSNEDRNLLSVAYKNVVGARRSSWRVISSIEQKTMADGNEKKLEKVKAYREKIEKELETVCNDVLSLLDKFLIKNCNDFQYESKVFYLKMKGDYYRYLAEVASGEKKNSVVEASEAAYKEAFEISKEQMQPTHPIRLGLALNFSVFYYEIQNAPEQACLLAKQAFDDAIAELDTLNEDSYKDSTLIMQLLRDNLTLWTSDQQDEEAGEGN

## Leucine-rich repeat serine/threonine-protein kinase 2 (Homo sapiens), Q5S007 E193K
1433f_human YWHAH
  effect of a mutation on the interaction: decreasing interaction strength
dnm1l_human DNM1L
  effect of a mutation on the interaction: increasing interaction strength
